Laboratory results: PMC11522927

Molecular target: VirC^4A (HMG synthase VirC, Cys114Ala/Gln334Ala/Arg335Ala/Arg338Ala) (Streptomyces virginiae)
Test: SEC-SAXS

Substance: VirC^4A (HMG synthase VirC, Cys114Ala/Gln334Ala/Arg335Ala/Arg338Ala) (enzyme)
- stoichiometry N: 2
